The results in this text go back to patent publication US20100298227A1 (published 2010).

For experiment [1], the target named is Detergent-soluble HLA-DR4 purified from Priess cells (DRB1*0401) (human).
Experiment [2] addresses Detergent-soluble HLA-DR1 purified from LG-2 cells (DRB1*0101) (human).
The target in experiment [3] is Detergent-soluble HLA-DR2 purified from MGAR cells (DRB1*1501) (human).
Experiment [4] shares this target. Description: competition with biotinylated TAL for purified HLA-DR; competitor TAL.
Experiment [5] concerns the target Detergent-soluble HLA-DR4 purified from Priess cells (DRB1*0401) (human). The experiment is described as above.
In experiment [6] the target is Detergent-soluble HLA-DR1 purified from LG-2 cells (DRB1*0101) (human). Described as above.

For orientation: IC50 means the concentration that gives 50% inhibition. Low readings indicate inhibition by little substance, high ones a need for much substance. The term Kd denotes the constant that tells how readily two partners part at equilibrium. High values mean lower affinity, low ones higher affinity. Consider “GAL terpolymer (SD-1689), poly[L-Glu 0.153, L-Ala 0.479, L-Lys 0.365]”, for which the concentration for half-maximal inhibition (IC50) in experiment [1], in experiment [2] and in experiment [3] was below 1000 µM each time. Further, the results for the Kd in experiment [1] and in experiment [3] were 0.003 µM and 0.017 µM, respectively.
In experiment [2], “TAL terpolymer (SD-1691), poly[L-Tyr 0.102, L-Ala 0.542, L-Lys 0.353]” yielded a 50% inhibitory concentration (IC50) of 3.3 µM. In experiment [3], this molecule registered an IC50 of 2.7 µM and a Kd of 0.017 µM.
Consider “TGA terpolymer (SD-1690), poly[L-Tyr 0.136, L-Glu 0.21, L-Ala 0.648]”, for which the IC50 is 1 µM in experiment [1], 1.3 µM in experiment [2] and 9.5 µM in experiment [3]. The dissociation constant Kd stood at 0.008 µM in experiment [1], 0.01 µM in experiment [2] and 0.008 µM in experiment [3].
On to Copolymer 1, for which the IC50 in experiment [1] turned out to be 10.8 µM; in experiment [2] it was 8.8 µM; in experiment [3], 10.1 µM. The dissociation constant Kd in experiment [1] was determined as 0.015 µM; in experiment [2], 0.074 µM; in experiment [3] it was 0.082 µM.
On to “GTL terpolymer (SD-1697), poly[L-Tyr 0.162, L-Glu 0.259, L-Lys 0.579]”, for which the results for the half-maximal inhibitory concentration (IC50) in experiment [1], in experiment [2] and in experiment [3] were 43 µM, 43 µM and 25.4 µM, respectively. Moreover, the Kd stood at 0.008 µM in experiment [1] and 0.004 µM in experiment [2].

B1: bacterial superantigen SEB (other)
chain: ESQPDPKPDELHKSSKFTGLMENMKVLYDDNHVSAINVKSIDQFLYFDLIYSIKDTKLGNYDNVRVEFKNKDLADKYKDKYVDVFGANYYYQCYFSKKTNDINSHQTDKRKTCMYGGVTEHNGNQLDKYRSITVRVFEDGKNLLSFDVQTNKKKVTAQELDYLTRHYLVKNKKLYEFNNSPYETGYIKFIENENSFWYDMMPAPGDKFDQSKYLMMYNDNKMVDSKDVKIEVYLTTKKK
Regarding B1, the “fold amount of superantigen needed to inhibit TAL binding” value (“fold amount … to inhibit TAL binding” below) in experiment [4], in experiment [5] and in experiment [6] was 50 fold in each case.

B2: bacterial superantigen TSST-1 (other)
chain: STNDNIKDLLDWYSSGSDTFTNSEVLDNSLGSMRIKNTDGSISLIIFPSPYYSPAFTKGEKVDLNTKRTKKSQHTSEGTYIHFQISGVTNTEKLPTPIELPLKVKVHGKDSPLKYGPKFDKKQLAISTLDFEIRHQLTQIHGLYRSSDKTGGYWKITMNDGSTYQSDLSKKFEYNTEKPPINIDEIKTIEAEIN
In the case of B2, the “fold amount … to inhibit TAL binding” value in experiment [4], in experiment [5] and in experiment [6] was 50 fold in each case.

B3: bacterial superantigen SEA (other)
chain: SEKSEEINEKDLRKKSELQGTALGNLKQIYYYNEKAKTENKESHDQFLQHTILFKGFFTDHSWYNDLLVDFDSKDIVDKYKGKKVDLYGAYYGYQCAGGTPNKTACMYGGVTLHDNNRLTEEKKVPINLWLDGKQNTVPLETVKTNKKNVTVQELDLQARRYLQEKYNLYNSDVFDGKVQRGLIVFHTSTEPSVNYDLFGAQGQYSNTLLRIYRDNKTINSENMHIDIYLYTS
In the case of B3, the “fold amount … to inhibit TAL binding” value in experiment [4], in experiment [5] and in experiment [6] was 50 fold in each case.
